Measured values reported in patent US20160340402A1 (ALMAC DISCOVERY, published 2016).

Biological target: the molecule itself
Assay: SDS PAGE and native PAGE, non-reducing against reducing conditions (self-association)

B1: full length recombinant His-tagged FKBP-L protein (variant Thr181, Gly186), N-terminal poly-histidine tag (other)
chain: MRGSHHHHHHGMASMTGGQQMGRDLYDDDDKDRWGSMETPPVNTIGEKDTSQPQQEWEKNLRENLDSVIQIRQQPRDPPTETLELEVSPDPASQILEHTQGAEKLVAELEGDSHKSHGSTSQMPEALQASDLWYCPDGSFVKKIVIRGHGLDKPKLGSCCRVLALGFPFGSGPPEGWTELTMGVGPWREETWGELIEKCLESMCQGEEAELQLPGHTGPPVGLTLASFTQGRDSWELETSEKEALAREERARGTELFRAGNPEGAARCYGRALRLLLTLPPPGPPERTVLHANLAACQLLLGQPQLAAQSCDRVLEREPGHLKALYRRGVAQAALGNLEKATADLKKVLAIDPKNRAAQEELGKVVIQGKNQDAGLAQGLRKMFG
notes: also called recombinant FKBP-L; rFKBP-L
binding result: binds
